Consider 5 molecules from patent publication JP2022142155A (dated 2022).

The labels stand for the following.
B1: 配列番号:37により表されるアミノ酸配列を含む抗HSA抗体 (VHH)
VHH: EVQLVESGGGLVHPGGSLRLSCVASGSDVSSDTMGWFRRAPGKQRELVAAIAWGGSTHYAESVKGRFTISRDNAKNTVYLQLSNLKPEDTAVYLCNTRNYWGQGTQVTVSS
notes: Expressed in E. coli from pRA2(+); also called H08A; H08A; not shown: C-terminal His tag from vector pRA2(+) (Ni-NTA purification, anti-His detection)
B2: 配列番号:39により表されるアミノ酸配列を含む抗HSA抗体 (VHH)
VHH: QLQLVESGGGLVQAGGSLRLSCAASGRTFRFSAMGWFRQAPGKEREFAAAISWTGGTTAYAESVKGRFIISRDNAKNTVYLQMNSLKPEDTAVYYCAAGPIPSPASRYDDWGQGTQVTVSS
notes: Expressed in E. coli from pRA2(+); also called H14A; H14A; not shown: C-terminal His tag from vector pRA2(+) (Ni-NTA purification, anti-His detection)
B3: 配列番号:40により表されるアミノ酸配列を含む抗HSA抗体 (VHH)
VHH: QVQLVESGGGLVQAGKSLRLSCTASGSIPSIGVTGWHRQAPGKQRELVATISQGGHINYFESVKGRFTISRDNAKNTVYLQMNSLKPEDTGVYYCNAFWLPLRLNDYWGQGTQVTVSS
notes: Expressed in E. coli from pRA2(+); also called H32A; H32A; not shown: C-terminal His tag from vector pRA2(+) (Ni-NTA purification, anti-His detection)
B4: 配列番号:38により表されるアミノ酸配列を含む抗HSA抗体 (VHH)
VHH: QVQLVESGGGLVQTGGSLRLSCAASGRIVTVAAMGWFRQAPGKEREFVASISWSGRSRSYADSVKGRFTISRDNAKNTAYLQMSSLKPEDTGVYYCALGGNSYSSDYARYDYWGQGTQVTVSS
notes: Expressed in E. coli from pRA2(+); also called H10A; H10A; not shown: C-terminal His tag from vector pRA2(+) (Ni-NTA purification, anti-His detection)
B5: 配列番号:36により表されるアミノ酸配列を含む抗HSA抗体 (VHH)
VHH: EVQLVESGGGFVQPGGSLRLSCVASGFTFERFDMGWVRQAPGKSLEWVSRFNSDDGRKSYADSVKGRFAISRDNAENTLYLQMNNLIPEDTAMYYCVKCQAYTSCTDAEDRGQGTQVTVSS
notes: Expressed in E. coli BL21(DE3) pLysS from pRA2(+) behind a vector-encoded leader; also called H01A; H01A; not shown: C-terminal His tag from vector pRA2(+) (Ni-NTA purification, anti-His detection)

The target in the assay is T1, ヒト血清アルブミン (human, UniProt P02768 25-609).
T1 construct: also called HSA; HSA
T1 sequence (P02768 25-609 limits assumed): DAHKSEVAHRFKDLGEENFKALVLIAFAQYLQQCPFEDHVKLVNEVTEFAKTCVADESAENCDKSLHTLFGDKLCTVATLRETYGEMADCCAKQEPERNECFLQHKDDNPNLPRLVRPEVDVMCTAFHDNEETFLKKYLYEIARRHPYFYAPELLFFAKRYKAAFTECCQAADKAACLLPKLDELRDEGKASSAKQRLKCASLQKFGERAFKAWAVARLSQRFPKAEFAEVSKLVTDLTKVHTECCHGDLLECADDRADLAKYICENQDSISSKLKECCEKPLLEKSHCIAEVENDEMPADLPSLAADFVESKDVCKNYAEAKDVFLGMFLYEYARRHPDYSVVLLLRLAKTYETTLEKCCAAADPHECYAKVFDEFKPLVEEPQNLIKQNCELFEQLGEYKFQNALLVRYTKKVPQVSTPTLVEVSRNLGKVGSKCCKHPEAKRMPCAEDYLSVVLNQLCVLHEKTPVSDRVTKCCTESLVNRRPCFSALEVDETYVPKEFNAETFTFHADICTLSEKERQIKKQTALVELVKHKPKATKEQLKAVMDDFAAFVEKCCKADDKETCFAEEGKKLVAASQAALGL
In words: SPR (Biacore T200), HSA amine-coupled on CM5 chip, VHH as analyte. For orientation: In SPR one partner is held on a chip, and binding of the other changes the refractive index at the surface.
On to B1, for which the Kd (usually the concentration at which binding is half-saturated) was 62.2 nM. This counts as double-digit nanomolar.

The molecule B2 had a Kd of 296 nM.

In the case of B3, the Kd was determined as 0.077 nM. Compared with the last molecule, the Kd is about 3800-fold lower.

In turn, B4 had a Kd of 124 nM.

B5 registered a Kd of 22.9 nM.
